# US10155985B2, “Evaluation of eosinophilic esophagitis” (CHILDREN'S HOSPITAL MEDICAL CENTER, priority 2004, dated 2018)
# Tested on: EE transcriptome
# Assay: Genome-wide microarray transcript profiling of esophageal biopsies, EE patients vs normal individuals (EE transcriptome)
# Settings: transcript level in esophageal biopsies of EE patients compared to normal individuals (NL); Affymetrix Human Genome U133 plus 2; p<0.01; >1 up-regulated, <1 down-regulated
# Procedure: Esophageal tissue obtained from patients previously diagnosed with EE was analyzed. Diagnosis was based on analysis of excised tissue from endoscopic biopsy. Tissues from patients with EE, as well as patients not having EE (controls) were subjected to genome-wide microarray transcript profiling (Affymetrix GeneChip). All work was performed at the Core facility at Children's Hospital Medical Center (Cincinnati Ohio).
# Briefly, RNA quality was first assessed using the Agilent bioanaiyzer (Agilent Technologies, Palo Alto Calif.). Only mRNA having a ratio of 28S/18S between 1.3 and 2 were subsequently used. RNA was converted to cDNA with Superscript choice for cDNA synthesis (Invitrogen, Carlsbad Calif.) and subsequently converted to biotinylated cRNA with Enzo High Yield RNA Transcript labeling kit (Enzo Diagnostics, Farmingdale N.Y.). After hybridization to the GeneChip (Affymetrix, Santa Clara Calif.), the chips were automatically washed and stained with streptavidin-phycoerythrin using a fluidics system. The chips were scanned with a Hewlett Packard GeneArray Scanner. Over 30,000 unique genes were screened.
# Levels of gene transcripts were determined from data image files, using algorithms in the Microarray Analysis Suite software (Affymetrix). Levels from chip to chip were compared by global scaling. Each gene was typically represented by a probe set of 16 to 20 probe pairs. Each probe pair consisted of a perfect match oligonucleotide and a mismatch oligonucleotide that contained a one base mismatch at a central position. Two measures of gene expression were used, absolute call and average difference. Absolute call is a qualitative measure in which each gene is assigned a call of present, marginal or absent, based on the hybridization of the RNA to the probe set. Average difference is a quantitative measure of the level of gene expression, calculated by taking the difference between […] of every probe pair and averaging the differences over the entire probe set. Data were normalized and an EE transcriptome gene list was created with results having p<0.01 (Welch t-test with or without false rate discovery) and ≥1.5-fold change.
# For evaluation of EE using clinical and/or physical assessment, biopsy tissues (obtained from the distal esophagus during routine endoscopy) were submerged in formalin for routine pathological analysis with hematoxylin and eosin staining. Diagnosis was established based on the maximum eosinophil count per high power field (hpf) and basal layer expansion according to method known in the art (e.g., established criteria in Rothenberg et al., Pathogenesis and clinical features of eosinophilic esophagitis. J Allergy Clin Immunol 108 (2001) 891; Attwood et al., Esophageal eosinophilia with dysphagia. A distinct clinicopathologic syndrome. Dig Dis Sci 38 (1993)109; Fox et al., Eosinophilic esophagitis: its not just kid's stuff. Gastrointest Endosc 56 (2002) 26, each of which is expressly incorporated by reference herein in its entirety. Normal individuals (NL), n=13, served as a control and were defined as having 0 eosinophils/hpf and no basal layer expansion. Individuals with EE (n=76) were defined as having >24 eosinophils/hpf and extensive basal layer hyperplasia (expansion to about >⅓ of epithelium).
# The data were analyzed by cluster analysis and ordered (standard correlation (A) and distance (B)) using Genespring software. […] Each column represented a separate individual and each line a gene. RNA from each patient was subjected to chip analysis using Affymetrix Human Genome U133 GeneChip plus 2.
row,Molecule,Fold Change
1,"SEQ_ID_#917 (nucleic acid, listed as Homo sapiens) DNA: TTGTTTGGAAAGATGAAAAATTTATTAGAAAAGATCTTTAAATGGCTTTTACTAAAGCGTCATTTAACAATTTTTCATATTATAGAAACAGCTTTTCATGGATGGTGTGACTGGGTCTGTATCCAAACCCGGTTCGGTTCCTGGAGCCAACGGCGTAGTTAACACTCAGCCTCTTGCAGTTAACACTCAGCCTCTTAACTGGGAGTGGCCCTGGAGCAAGTCGCTGGAATGTTCAAGCTCCGCGTCACTCATCGGTACCAAGTTGATGATCTCTGCCTAGGGTTCTTCGCCACCCTCAGGCTCAAGTCCCAGGAGGCCTCCTCCGCTGACTTGGGTGAACAGCTCTGAGTTCCGGAGAGGGTTCGGTCTGCGGAGAAGCGCGCGAGAGACAAGCATCCTCAAGGTTCTGGTACAAAATTTGGAAAATGACCTGGCGTTGAAATCTTTACTCCTCGTTTAAAAAGACCATCGAAAGGGAAAAAATAAAAGAAATTGCAGTTTATATTTTTGTTATCCCATGAAAAATTAGCTGCAGTGTTTTCCTCTTCATGCCAAAGAGATTAATATTTACGGTGAAGACTTTTCCAGGAAGTCGTGGTTTTCTGGGGCCCTGCCTCTGAGCCTTTTGTTTCCTCCTTTTTAAAAACACCGGATGAAAGACCCAGTGTGCCTTGGATCGCAGAGCGCGGCCGCATGTCTGCTTTGA",0.637
2,"SEQ_ID_#807 (nucleic acid, listed as Homo sapiens) DNA: TTAGCATTTTTAAATTTTATTATGACTTCATTTGTTTAAATATATATATATATATATATATATATATTTATTTATAGCTCTATGTGCCCACCGCCCCCGGCCCCCTCCCCGGCCCCTAGTTTTTCCCCCTGGCTTTCTGTCTAGTGGCTGTGTAGGGCAGAACCGTCTGCGTGCTCTTGTCTGACACTGTCTGGGTGCTGCTGTTCCTCGTGACCCTTCGAGTCTGTTCAGGGGCCAAGGTAGAGCCTGAGTGGCGGCTGGTCAGTGGAGAGCGCCGTGACTTGTAGGGGGCTGGGGAGGGCTTGTGGGGGCCTGCATGGGCCTCTGTATGGGCAGGCTCAGGGGGCAAGCCCACTTCTTCCTCCTCCACCTCCTGCTCACCGTCCCCCTCCTCATCGTC",1.514
3,"SEQ_ID_#901 (nucleic acid, listed as Homo sapiens, chemistry not fully specified; the letters are possibly those of the target site) DNA: CTCCTCGCCCTCCCCACCGACATCATGCTCCAGTTCCTGCTTGGATTTACACTGGGCAACGTGGTTGGAATGTATCTGGCTCAGAACTATGAT",0.643
4,"SEQ_ID_#840 (nucleic acid, listed as Homo sapiens) DNA: TACCACACATCTTCTTTATTAATGCATTGACAATCAGTGAAGACAATGAAAACCCACCACTTTTGTCCGTGAACTGAGAAAGAAAATGGCAATGTCATATGGCATTAATGATGCATGAGATCTATGGGTGTAGTGTCACGTCTAGGCGTGTAGTAATCCAGTCTTCGGCCTTACTCCAGGGAGAAAGATTCAGCTTTGTTACTTTCCAGTCACTCTCTCCCGTAACACAGCACCAAGACCGTTTAAAGCACTTAATTAATTCACTTCAGCTTCGCTGGAGAGGTCTCAGGGTTCCCGAGACTCCATTACATAATATCTTTCACAAAGTCTATTCCCAGCTCGAATGGAAGATGGATTCTCATCCAGTGTGCGG",0.665
5,"SEQ_ID_#906 (nucleic acid, listed as Homo sapiens) DNA: TGCTTTTGTTGTTGTTTTTAATTTAAAAAGACAAAATTGTTCGCCTTGTATAGAAGTAGATACAGCTTAGAGAGCCAAGGTAACAAGAGGGGAAAAGTTTGTGTTGTCTGGTACTTTTGAGGGAGTCAGAAGCCTAAAGGGAGGCTCTAACTCATGATTCTCAGAAGACAACTGTTGTCAACAGTTCAAATGAGAACTGAACGGCCACACTCCTGCAGCTGAAAGGAGTCAATGCGAGCTGAGTTGCTCTCACCGAACAGAGTGCGTTCCCCGGGGAGGCAGGGAAAGGCCGGCTTGCACCTGCTCTGTCACCCAGCTCCACTCTTAGGACAGAAGAGGTCTGGAAAATGTCTGGG",0.64
6,"SEQ_ID_#909 (nucleic acid, listed as Homo sapiens) DNA: TGCTTTTGTTGTTGTTTTTAATTTAAAAAGACAAAATTGTTCGCCTTGTATAGAAGTAGATACAGCTTAGAGAGCCAAGGTAACAAGAGGGGAAAAGTTTGTGTTGTCTGGTACTTTTGAGGGAGTCAGAAGCCTAAAGGGAGGCTCTAACTCATGATTCTCAGAAGACAACTGTTGTCAACAGTTCAAATGAGAACTGAACGGCCACACTCCTGCAGCTGAAAGGAGTCAATGCGAGCTGAGTTGCTCTCACCGAACAGAGTGCGTTCCCCGGGGAGGCAGGGAAAGGCCGGCTTGCACCTGCTCTGTCACCCAGCTCCACTCTTAGGACAGAAGAGGTCTGGAAAATGTCTGGG",0.639
7,"SEQ_ID_#915 (nucleic acid, listed as Homo sapiens) DNA: CAATAGGAGAAGCCAAGAAACGCAGATGCCGATGCTTAATCAACTCCGTCTCTCCCTCTAGTGACTCGGGGATAGCTGCCCTGATGCCAAGGCGATTGTCTTCTGGAAGCAGCCACGCCGTGTGAGGTTCCTCATCACTGCCCTGCATCTCCCTGCGAGCTCTCGGGGATAATTGCAAAATCACGTTTGATTCCAGGGAGCAGAAAGCAGCAGGAGCCGTGAATTCTCCAACTCTTAACTGGTCCTCGACTGAGCCACTTTTCCCTGCCCACCCATCCCTGTGGCGGATTCATTACAGTTATCCAAAGCCGGTTTTAACTTTGCTCCCCCTGGCTCAGAAGTCTGTCAGTGGGTCCTGAGCGGTTCACCATTCAAGTTTATTCCTATCAGCCTGGAATACAATGCTCTATCTG",0.638
8,"SEQ_ID_#808 (nucleic acid, listed as Homo sapiens) DNA: TTTCACTATAGAAAACCTTTAATAACAACTTCAGATTTACATGACCCTTCTGGTGCTCAGAACACTATGGATTAACACACACACTGGAAAGATACAGACACAGGAATCTGCTGCATTACCCCAAATGGCAAAGTCTTGACTGGGGCTTCAGCTCCTTTCCCAATCCAAAATTGGCACCTTTTTCCATGGAAATTCAAACTGCATCTCTAAATGATGGGGTACATGAACTGTCTGTTTCAAAAGTATTTAAAAACAAACAGGAAGTACAGCTTCCATTTCATTAAGAAAACACCACCACAAGACATGGTGCAGTATCTACTAGCTTAAAGTTTATCACTCCATTAGGGCTTATTGACAGCAGAAATGTGAATGTAGTAATGTAGAAATAAGGAAGAGAGCACTTAAGAAAAAAACAGTACAGAAGTTTTAGAGTTTTTTAAACTTTAATAATATGCTTGACTAATATAGTCAAAAGTGATATGCACTCGTGAAATTAACCCATTTTCTGAAGTCCAAATTAGCTATTAAAGTCTTTTTTTACCAAAAACATATAAGGATTTAGTACACTATATAGATTACATAGCTTTCCT",1.513
